Test results: paper PMC4294777

Target: Klp5-3FLAG (fission yeast) (UniProt O14343)
Test: co-IP; protein extracts (4 mg or 8 mg) of metaphase-arrested cut9-665 cells (36°C, 2.5 hours) added to protein A Dynabeads coated with anti-Flag antibodies; blotted with anti-Flag and anti-Myc

Sequence of UniProt O14343 (O14343 whole entry): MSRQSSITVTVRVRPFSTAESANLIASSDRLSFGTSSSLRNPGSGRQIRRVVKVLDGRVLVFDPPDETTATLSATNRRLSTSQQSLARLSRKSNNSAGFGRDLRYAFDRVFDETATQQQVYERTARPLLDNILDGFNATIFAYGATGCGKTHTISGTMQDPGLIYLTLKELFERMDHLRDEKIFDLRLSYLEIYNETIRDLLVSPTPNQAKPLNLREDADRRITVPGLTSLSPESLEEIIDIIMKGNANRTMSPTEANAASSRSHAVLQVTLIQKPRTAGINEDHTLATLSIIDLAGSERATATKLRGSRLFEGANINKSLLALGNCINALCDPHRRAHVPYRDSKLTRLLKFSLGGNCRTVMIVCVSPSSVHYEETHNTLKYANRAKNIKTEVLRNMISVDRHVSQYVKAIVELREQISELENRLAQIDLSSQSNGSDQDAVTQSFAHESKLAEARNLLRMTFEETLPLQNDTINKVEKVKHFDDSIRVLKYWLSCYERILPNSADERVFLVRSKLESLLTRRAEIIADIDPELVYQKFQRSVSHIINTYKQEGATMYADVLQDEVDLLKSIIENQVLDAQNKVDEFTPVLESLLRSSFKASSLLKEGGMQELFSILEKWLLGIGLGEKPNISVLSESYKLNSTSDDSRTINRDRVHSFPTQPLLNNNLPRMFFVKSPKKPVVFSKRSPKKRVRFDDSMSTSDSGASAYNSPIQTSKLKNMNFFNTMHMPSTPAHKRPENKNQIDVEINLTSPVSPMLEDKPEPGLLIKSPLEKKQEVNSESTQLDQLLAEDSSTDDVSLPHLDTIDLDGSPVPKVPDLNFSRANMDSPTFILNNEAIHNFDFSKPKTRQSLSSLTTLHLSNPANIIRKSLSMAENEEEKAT

reduction of binding compared to Alp7: > 70%
Substance: Alp7-LA6-Myc (from UniProt Q9URY2 1-474) (natural protein)
